Numbering of substitutions follows the chain as printed. In names and notes the source's numbering stands. Where two headings read alike, the source gives them in different places. One block for each binder: values may come before it.
Assays:
FLAG-tagged human APRIL [1] = target: T1, FLAG-tagged human APRIL (human, UniProt O75888 105-250, limits assumed); assay: FLAG-APRIL ELISA after 10 min at 65 °C, antibody at 1 µg/ml
T1 construct: also called FLAG-tagged APRIL; FLAG-APRIL; not shown: FLAG tag
T1 sequence (looked up): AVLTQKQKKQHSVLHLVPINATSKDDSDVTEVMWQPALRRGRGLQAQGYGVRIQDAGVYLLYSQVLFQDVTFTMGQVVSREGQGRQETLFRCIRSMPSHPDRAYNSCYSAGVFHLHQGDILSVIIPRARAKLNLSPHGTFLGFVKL
Method: (§1) The plasmids encoding the VH and VL constructs were mixed in a 1:3 ratio (4 μg in total) and transiently expressed by transfection into HEK293T human embryonic kidney cells (HEK293T/17, ATCC-CRL-11268), using Lipofectamine 2000 transfection reagent (Invitrogen) following the manufacturer's instructions. Cell supernatants were harvested after 5 days and tested for expression of antibody and binding to APRIL using an enzyme-linked immuno assay (ELISA). In these ELISAs, all incubation steps were followed by a wash step with PBST (PBS with 0.01% Tween 20). Maxisorb 96-wells plates (Nunc) were coated with 0.5 μg/ml anti-FLAG (Sigma) or anti-IgG4 (Jackson laboratories) and incubated overnight at 4° C. Subsequently the anti-FLAG coated 96-wells plates were incubated with FLAG-tagged human APRIL for 1 hour at room temperature. Next, supernatants and dilutions thereof were incubated for 1 hour, which was followed by an incubation of 1 hour with mouse anti-human IgG HRP-conjugate (Southern Biotechnology).
(§2) To determine the effect of humanization on the stability of the antibodies, humanized antibodies were exposed to a range of temperatures for 10 minutes. Purified antibodies were diluted to 3.16 μg/ml and dilutions thereof in PBS. Next, these solutions were exposed to 65° C. or 70° C. and residual binding after heat treatment of the antibodies was measured using the FLAG-tagged APRIL ELISA assay as described before (see Table 6).

FLAG-tagged human APRIL [2] = target: T1, FLAG-tagged human APRIL; assay: FLAG-APRIL ELISA after 10 min at 70 °C, antibody at 1 µg/ml
Method: as §1, §2

FLAG-tagged human APRIL [3] = target: T1, FLAG-tagged human APRIL; assay: FLAG-APRIL ELISA after 10 min at 65 °C, antibody at 1 µg/ml; remark: listed apart in the source
Method: as §1, §2
(§3) In addition, the stability of the substituted humanized antibodies was improved as determined using thermostability studies as described in Example 3 (see Table 9).

FLAG-tagged human APRIL [4] = target: T1, FLAG-tagged human APRIL; assay: FLAG-APRIL ELISA after 10 min at 70 °C, antibody at 1 µg/ml; remark: listed apart in the source
FLAG-tagged human APRIL [5] = target: T1, FLAG-tagged human APRIL; assay: FLAG-APRIL ELISA after 10 min at 65 °C, antibody at 3.16 µg/ml
Method: as §1, §2

FLAG-tagged human APRIL [6] = target: T1, FLAG-tagged human APRIL; assay: FLAG-APRIL ELISA after 10 min at 70 °C, antibody at 3.16 µg/ml
Method: as §1, §2

FLAG-tagged human APRIL [7] = target: T1, FLAG-tagged human APRIL; assay: FLAG-APRIL ELISA after 10 min at 65 °C, antibody at 3.16 µg/ml; remark: listed apart in the source
Method: as §1, §2, §3

FLAG-tagged human APRIL [8] = target: T1, FLAG-tagged human APRIL; assay: FLAG-APRIL ELISA after 10 min at 70 °C, antibody at 3.16 µg/ml; remark: listed apart in the source
FLAG-tagged human APRIL [9] = target: T1, FLAG-tagged human APRIL; assay: FLAG-APRIL ELISA after 10 min at 65 °C, antibody at 0.316 µg/ml
Method: as §1, §2

FLAG-tagged human APRIL [10] = target: T1, FLAG-tagged human APRIL; assay: FLAG-APRIL ELISA after 10 min at 70 °C, antibody at 0.316 µg/ml
Method: as §1, §2

FLAG-tagged human APRIL [11] = target: T1, FLAG-tagged human APRIL; assay: FLAG-APRIL ELISA after 10 min at 65 °C, antibody at 0.316 µg/ml; remark: listed apart in the source
Method: as §1, §2, §3

FLAG-tagged human APRIL [12] = target: T1, FLAG-tagged human APRIL; assay: FLAG-APRIL ELISA after 10 min at 70 °C, antibody at 0.316 µg/ml; remark: listed apart in the source
FLAG-tagged human APRIL [13] = target: T1, FLAG-tagged human APRIL; assay: ELISA: FLAG-tagged human APRIL captured on anti-FLAG plate, purified antibody titrated
Method: as §1
(§4) A subset of humanized antibodies described above was selected for further analyses. Again, plasmids encoding the VH and VL constructs were mixed in a 1:3 ratio (32 μg) and transiently expressed by transfection into (8*10⁶) HEK293T human embryonic kidney cells (HEK293T), using Lipofectamine 2000 transfection reagent (Invitrogen) according to the manufacturer's instructions. Supernatants were harvested (10 ml) and antibodies were purified using MabSelect Sure Protein A resin according to the manufacturer's instructions (GE Healthcare). Buffer was exchanged for PBS using Zeba desalting columns (Thermo Scientific). The concentration of purified antibodies was determined based on OD280 (Nanodrop ND-1000). The binding of the purified antibodies to APRIL was established using the above described APRIL ELISA. The blocking capability of the humanized antibodies with BCMA and TACI receptors, was tested in a competition ELISA. In these ELISAs, all incubation steps were followed by a wash step with PBST (PBS with 0.01% Tween 20). Maxisorb 96-wells plates (Nunc) were coated with 0.5 μg/ml Fc-BCMA (R&D Systems) or Fc-TACI (R&D Systems) and incubated overnight at 4° C. Next, humanized antibodies and dilutions thereof were incubated, premixed with FLAG-tagged APRIL, for 1 hour, which was followed by an incubation of 1 hour with anti-FLAG HRP-conjugate (Sigma).

FLAG-tagged human APRIL [14] = target: T1, FLAG-tagged human APRIL; assay: as above; remark: listed apart in the source
FLAG-tagged human APRIL [15] = target: T1, FLAG-tagged human APRIL; assay: competition ELISA: antibody premixed with FLAG-tagged APRIL, added to coated Fc-BCMA, anti-FLAG HRP
Method: as §4, with “(Sigma). Immunoreactivity was visualized with 100 μl TMB Stabilized Chromagen (Invitrogen). Reactions were stopped with 100 μl 0.5 M H2504 and absorbances were measured at 450 and 620 nm. Calculated EC₅₀ and IC₅₀ representing the concentration at which 50% of the total binding signal or blocking is observed are represented in Table 5.” for “(Sigma).”
The antibodies were tested for binding, blockade, and stability as described before.

B1: VH14.VL15 (antibody, human IgG4 S228P, kappa, V domains shown)
VH: QVQLVQSGAEVKKPGASVKVSCKASGYTFTSYVMHWVRQAPGQGLEWMGYINPYNDAPKYNEKFKGRVTMTRDTSASTAYMELSSLRSDDTAVYYCARGLGYALYYAMDYWGQGTTVTVSS
VL: DIVMTQSPSTLSASVGDRVTITCKASQNVGNNVAWYQQKPGKAPKLLISSASNRDSGVPSRFSGSGSGTEFTLTISSLQPDDFATYFCQQYNIYPFTFGQGTKLEIKR
notes: Humanized IgG4 (S241P, Kabat) with human kappa, from HEK293T
- % residual binding after heat treatment (room temperature = 100%) (FLAG-tagged human APRIL [1]): 45.2%
- % residual binding after heat treatment (room temperature = 100%) (FLAG-tagged human APRIL [2]): 42.5%
- % residual binding after heat treatment (room temperature = 100%) (FLAG-tagged human APRIL [3]): 47.5%
- % residual binding after heat treatment (room temperature = 100%) (FLAG-tagged human APRIL [4]): 55.1%
- % residual binding after heat treatment (room temperature = 100%) (FLAG-tagged human APRIL [5]): 58.6%
- % residual binding after heat treatment (room temperature = 100%) (FLAG-tagged human APRIL [6]): 50%
- % residual binding after heat treatment (room temperature = 100%) (FLAG-tagged human APRIL [7]): 59%
- % residual binding after heat treatment (room temperature = 100%) (FLAG-tagged human APRIL [8]): 58.6%
- % residual binding after heat treatment (room temperature = 100%) (FLAG-tagged human APRIL [9]): 63.7%
- % residual binding after heat treatment (room temperature = 100%) (FLAG-tagged human APRIL [10]): 63.1%
- % residual binding after heat treatment (room temperature = 100%) (FLAG-tagged human APRIL [11]): 67.5%
- % residual binding after heat treatment (room temperature = 100%) (FLAG-tagged human APRIL [12]): 79.1%
- EC50 (FLAG-tagged human APRIL [13]): 0.0483 µM

B3: VH12.VL15 (antibody, human IgG4 S228P, kappa, V domains shown)
VH: B1 VH with A76I, S85R
VL: B1 VL
notes: Humanized IgG4 (S241P, Kabat) with human kappa, from HEK293T; also called 12.15
- % residual binding after heat treatment (room temperature = 100%) (FLAG-tagged human APRIL [1]): 49.8%
- % residual binding after heat treatment (room temperature = 100%) (FLAG-tagged human APRIL [2]): 51.8%
- % residual binding after heat treatment (room temperature = 100%) (FLAG-tagged human APRIL [5]): 66.4%
- % residual binding after heat treatment (room temperature = 100%) (FLAG-tagged human APRIL [6]): 50.2%
- % residual binding after heat treatment (room temperature = 100%) (FLAG-tagged human APRIL [9]): 74.3%
- % residual binding after heat treatment (room temperature = 100%) (FLAG-tagged human APRIL [10]): 70.3%
- EC50 (FLAG-tagged human APRIL [13]): 0.0198 µM

Next, values leading:

- % residual binding after heat treatment (room temperature = 100%) (FLAG-tagged human APRIL [1]): 44.4%
- % residual binding after heat treatment (room temperature = 100%) (FLAG-tagged human APRIL [2]): 47.4%
- % residual binding after heat treatment (room temperature = 100%) (FLAG-tagged human APRIL [5]): 76.2%
- % residual binding after heat treatment (room temperature = 100%) (FLAG-tagged human APRIL [6]): 80.5%
- % residual binding after heat treatment (room temperature = 100%) (FLAG-tagged human APRIL [9]): 66.1%
- % residual binding after heat treatment (room temperature = 100%) (FLAG-tagged human APRIL [10]): 65%
- EC50 (FLAG-tagged human APRIL [13]): 0.223 µM
B2: VH13.VL15 (antibody, human IgG4 S228P, kappa, V domains shown)
VH: B1 VH with A76T, A79V, D89E, T116M
VL: B1 VL
notes: Humanized IgG4 (S241P, Kabat) with human kappa, from HEK293T; also called 13.15

- % residual binding after heat treatment (room temperature = 100%) (FLAG-tagged human APRIL [3]): 31.3%
- % residual binding after heat treatment (room temperature = 100%) (FLAG-tagged human APRIL [4]): 16.9%
- % residual binding after heat treatment (room temperature = 100%) (FLAG-tagged human APRIL [7]): 94.5%
- % residual binding after heat treatment (room temperature = 100%) (FLAG-tagged human APRIL [8]): 78.2%
- % residual binding after heat treatment (room temperature = 100%) (FLAG-tagged human APRIL [11]): 34.2%
- % residual binding after heat treatment (room temperature = 100%) (FLAG-tagged human APRIL [12]): 23.8%
- EC50 (FLAG-tagged human APRIL [14]): 0.00078 µM
- IC50 (FLAG-tagged human APRIL [15]): 0.00135 µM
B4: VH14_1G.VL15 (antibody, human IgG4 S228P, kappa, V domains shown)
VH: B1 VH with R67K, V68A, R72S
VL: B1 VL
notes: VH14_1 with R67K and V68A; Humanized IgG4 (S241P, Kabat) with human kappa; also called 14_1G.15; 14_1 G.15
